Consider 10 molecules from patent US20200385427A1.

Experiment [1] concerns the target Pin1 (human) (UniProt Q13526). As to the kind of experiment: cell-based or functional assay.
In experiment [2] the target is Pin1 (human) (UniProt Q13526). Description: fluorescence anisotropy, FITC-labeled peptide.
Experiment [3] has as its target ybbR-tagged PTP1B catalytic domain (amino acids 1-321) (UniProt P18031). Description: cell-based or functional assay.
Experiment [4] deals with MBP-Pin1 (S16A/Y23A mutant Pin1 as a maltose-binding protein fusion at the N-terminus) (UniProt Q13526). Description: FA of TMR-labeled peptide released from the bead, 5 µM MBP-Pin1.
Experiment [5] concerns the target full-length human S16A/Y23A mutant Pin1 (human) (UniProt Q13526). Description: fluorescence anisotropy, FITC-labeled peptide.

Starred links: 1 amine or outer side, 2 acyl side, 3 side chain; linkers in the order of their positions; H or OH if unused. Non-standard residues stand in square brackets, D forms with d. No end group written: not given here. Trimesoyl = O=C(c1cc(C(=O)[*:2])cc(C(=O)[*:3])c1)[*:1]; F2Pmp = N[C@@H](Cc1ccc(C(F)(F)P(=O)(O)O)cc1)C(=O)O; Phe(4-F) = N[C@@H](Cc1ccc(F)cc1)C(=O)O; dPhe(4-F) = N[C@H](Cc1ccc(F)cc1)C(=O)O; 2Nal = N[C@@H](Cc1ccc2ccccc2c1)C(=O)O; Phg = N[C@H](C(=O)O)c1ccccc1; Pip = O=C(O)[C@@H]1CCCCN1; Nle = CCCC[C@H](N)C(=O)O; Dap = NC[C@H](N)C(=O)O; Sar = CNCC(=O)O

ybbR-tagged PTP1B catalytic domain (amino acids 1-321), sequence (P18031 other isoform, or with tags, fused parts or gaps limits assumed): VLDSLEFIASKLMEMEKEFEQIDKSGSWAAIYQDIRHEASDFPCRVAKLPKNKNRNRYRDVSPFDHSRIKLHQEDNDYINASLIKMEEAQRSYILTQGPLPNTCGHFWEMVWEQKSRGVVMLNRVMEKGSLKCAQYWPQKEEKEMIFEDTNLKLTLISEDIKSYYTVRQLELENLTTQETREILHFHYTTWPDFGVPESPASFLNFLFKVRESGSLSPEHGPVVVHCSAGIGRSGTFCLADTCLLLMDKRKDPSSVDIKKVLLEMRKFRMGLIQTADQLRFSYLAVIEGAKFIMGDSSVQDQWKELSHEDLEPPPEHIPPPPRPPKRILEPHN

B1: peptide 37 (Table 18) (peptide)
peptide: Trimesoyl-[dPhe(4-F)][Phe(4-F)][dT][Pip][2Nal]RA[dF][Dap]F[2Nal]RRRR[Dap]K
modifications: linker (positions not given here) via Trimesoyl; not fully specified (C-terminus, bridges); printed as bicyclo[Tm-(D-4-Fpa-Fpa-D-Thr-Pip-Nal-Arg-Ala-D-Phe)-Dap-(Phe-Nal-Arg-Arg-Arg-Arg-Dap)]-Lys
On to B1, for which, in the experiment with Pin1 (human) [1], the IC50 (HeLa cell growth, MTT assay) worked out at 1000 nM; the IC50 (cis-trans isomerase activity toward Suc-Ala-Glu-Pro-Phe-pNA) is 170 nM; the PML protein level in HeLa cells (western blot), at 0.2 µM inhibitor is 1.8 fold; the PML protein level in HeLa cells (western blot), at ˜1 µM inhibitor was 3.3 fold.

B2: peptide 22 (Table 18) (peptide)
peptide: Trimesoyl-P[Sar][dD][Pip][2Nal]RR[dF][Dap]F[2Nal]RRRR[Dap]K
modifications: linker (positions not given here) via Trimesoyl; not fully specified (C-terminus, bridges); printed as bicyclo[Tm-(Pro-Sar-D-Asp-Pip-Nal-Arg-Arg-D-Phe)-Dap-(Phe-Nal-Arg-Arg-Arg-Arg-Dap)]-Lys
In the case of B2, in the experiment with Pin1 (human) [2], the fold increase of Pin1 inhibitory activity against the D-Ala parent is 2 fold.

B3: Monocyclic Inhibitor 1 (peptide)
peptide: cyclo([dT][dN][dV][F2Pmp][dA]RRRR[2Nal]FQ)
SMILES: CC(C)[C@H]1NC(=O)[C@@H](CC(N)=O)NC(=O)[C@@H]([C@H](C)O)NC(=O)[C@H](CCC(N)=O)NC(=O)[C@H](Cc2ccccc2)NC(=O)[C@H](Cc2ccc3ccccc3c2)NC(=O)[C@H](CCCNC(=N)N)NC(=O)[C@H](CCCNC(=N)N)NC(=O)[C@H](CCCNC(=N)N)NC(=O)[C@H](CCCNC(=N)N)NC(=O)[C@@H](C)NC(=O)[C@H](Cc2ccc(C(F)(F)P(=O)(O)O)cc2)NC1=O
Consider B3, for which, in experiment [3], the IC50 (inhibition of pNPP hydrolysis) turned out to be 100 nM.

B4: peptide 8 (Table 18) (peptide)
peptide: XHXTXXRAAXFXRRRRXK
modifications: not fully specified; bicyclo[Tm-(His-Phg-D-Thr-Pip-Nal-Arg-Ala-D-Ala)-Dap-(Phe-Nal-Arg-Arg-Arg-Arg-Dap)]-Lys
By Kd is commonly meant the free concentration of one partner at which half of the binding sites on the other are occupied at equilibrium, for simple one-to-one binding. Read a low Kd as a tighter complex. In the experiment with Pin1 (human) [2], B4 registered an equilibrium dissociation constant (Kd) of 1000 nM. Further, the FA increase relative to the no-protein control in experiment [4] was over 50%.

B5: peptide 7 (Table 18) (peptide)
peptide: XXIEXXRAAXFXRRRRXK
modifications: not fully specified; bicyclo[Tm-(Mpa-Ile-D-Glu-Pip-Nal-Arg-Ala-D-Ala)-Dap-(Phe-Nal-Arg-Arg-Arg-Arg-Dap)]-Lys
As to B5, the Kd in the experiment with Pin1 (human) [2] was 1000 nM. In addition, the FA increase relative to the no-protein control in experiment [4] was over 50%.

B6: Pin1 inhibitor 7 (peptide)
peptide: XAXXXXRAAXFXRRRRXK
modifications: not fully specified; bicyclo[Tm(D-Ala-Sar-D-pThr-Pip-Nal-Arg-Ala-D-Ala)-Dap-(Phe-Nal-Arg-Arg-Arg-Arg-Dap)]-Lys-NH2
For the molecule B6, in the experiment with Pin1 (human) [1], the IC50 (HeLa cell growth, MTT assay) worked out at 1800 nM and the PML protein level in HeLa cells (western blot), at 5 µM is 3.1 fold. The same molecule had a fold improvement of potency against inhibitor 6 in experiment [5] of 2 fold.

On to AXXXXYQK (cyclo(D-Ala-Sar-D-pThr-Pip-Nal-Tyr-Gln)-Lys-NH2) [Pin1 inhibitor 5], for which the Kd with Pin1 (human) [2] came to 240 nM.

B7: peptide 6 (Table 18) (peptide)
peptide: XXHEXXRAAXFXRRRRXK
modifications: not fully specified; bicyclo[Tm-(Phg-His-D-Glu-Pip-Nal-Arg-Ala-D-Ala)-Dap-(Phe-Nal-Arg-Arg-Arg-Arg-Dap)]-Lys
In turn, B7 showed a Kd with Pin1 (human) [2] of 1000 nM. Also, the FA increase relative to the no-protein control in experiment [4] is over 50%. The molecule cyclo(IP[Phg][F2Pmp][Nle]RRRR[2Nal]FQ) [Monocyclic Inhibitor 3] registered an IC50 (inhibition of pNPP hydrolysis) in experiment [3] of 200 nM.

B8: peptide 4 (Table 18) (peptide)
peptide: Trimesoyl-[dF][Phe(4-F)][dT][Pip][2Nal]RA[dA][Dap]F[2Nal]RRRR[Dap]K
modifications: linker (positions not given here) via Trimesoyl; not fully specified (C-terminus, bridges); printed as bicyclo[Tm-(D-Phe-Fpa-D-Thr-Pip-Nal-Arg-Ala-D-Ala)-Dap-(Phe-Nal-Arg-Arg-Arg-Arg-Dap)]-Lys
B8 returned a Kd with Pin1 (human) [2] of 1000 nM.
